A short description of the data set: amyloid nucleation score (Sup35N fusion, yeast selection) (log enrichment); library NNK2; higher = more nucleation; inactive = no reads after selection. The essentials:
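Peptides of 20 random codons, each fused to Sup35N, were expressed in psi-negative yeast. Cells were induced with 100 μM copper sulfate for 24 hours and grown 7 days at 30°C on medium lacking adenine and uracil, and plasmid inserts before and after selection were Illumina-sequenced. Nucleation scores are DiMSum log enrichments of output over input reads, centred on the mode score of non-aggregating sequences, and sequences under 100 input reads were excluded.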

± gives the uncertainty stated by the source.

For the substance TFNKLYYSSVACLCRLGHSR, the amyloid nucleation score was 9.32 ± 0.055.
EACVISNGISILL showed an amyloid nucleation score of -0.54 ± 0.35.
Turning to IRRVSAQVCINWSIEWKSTR, the amyloid nucleation score was found to be 1.07 ± 0.33.
Under ASRPWMMYPHESARRSR stands 1.6 ± 0.22; under RITFVILYDAFGEDMDLVSL, 2.09 ± 0.12; under YGFVDSHRTH, 0.092 ± 0.61.
VKRVFGYCFIEGLSKDVFHG displayed an amyloid nucleation score of 6.351 ± 0.043.
The result for NGFMDYQLPLAARVKSSWHL reads 2.97 ± 0.076; that for RCVGNYIWIKAFPMCLMTRC, -0.825 ± 1.1; that for CFFSNQMADGYPQRWAVLRD, 4.94 ± 0.054.
Take SCRTQVMVLSLLFKRKVGFN: the amyloid nucleation score is -1.28 ± 0.36.
Substance TSQLRMDGSSILMAHLKCYR yielded an amyloid nucleation score of 0.441 ± 0.26.
Under TITILV stands 0.089 ± 0.23.
Turning to CTLLFTLSYSVS, the amyloid nucleation score was determined as 4.245 ± 0.037.
The result for KMSPQ reads “inactive”; that for LYKSSIA, -2.08 ± 0.49.
Turning to TTDRTDCLSFQLNFTDMKRG, the amyloid nucleation score came out at 6.08 ± 0.073.
With FRRNKNN, the amyloid nucleation score result was “inactive”.
In turn, FTNVSEIWMSFGHNPESGLA showed an amyloid nucleation score of 2.92 ± 0.074.
Turning to TDVTYRNVVVSSRKFSGNRN, the amyloid nucleation score was found to be 8.149 ± 0.073.
For VDWVMNCYTSGVVSLSFSLG, the amyloid nucleation score entry was “inactive”.
Substance FSKSVVGSPERKHVDT came in with an amyloid nucleation score of 0.948 ± 0.34.
The result for IMCEGSTPDFIIYSCMLLVY reads -1.41 ± 0.42; that for GTTDTCSAV, 3.2 ± 0.093.
Substance EVSHAIYRWTLEKYCWNCHV displayed an amyloid nucleation score of 0.09 ± 0.24.
For DIVIDRNMSLWDPFNIVPFE, the amyloid nucleation score is -0.27 ± 0.79.
Turning to MGSGSIFT, the amyloid nucleation score is 0.287 ± 0.45.
VSPLNGSVYGGDEVFGINLG returned an amyloid nucleation score of -1.95 ± 0.75.
The substance CWVAYERSHTFRPKNQFFMH came in with an amyloid nucleation score of 1.02 ± 0.53.
As for VLCFCRDFLFVLIQNPFTFP, the amyloid nucleation score entry was “inactive”.
On to KLANYHLARDSFMVRKHRKG, for which the amyloid nucleation score is 0.602 ± 0.57.
Substance KARRPRIWDMDLLQLWANLP had an amyloid nucleation score of 1.12 ± 0.66.
Under MWRGQCV stands 1.06 ± 0.24; under GTLWRFKESTMGLTGITAGT, 0.987 ± 0.4; under DYITCQFYLTVFELSCCMSC, 7.932 ± 0.047.
On to SARFCIWVYVSNGNNGMRCV, for which the amyloid nucleation score stood at 3.52 ± 0.04.
In the case of HPFMFKVCSTYFLNYLASCQ, the amyloid nucleation score is 6.78 ± 0.074.
In the case of WFMNSNVLHYM, the amyloid nucleation score was found to be 0.27 ± 0.64.
On to CRKYKLRHRADDCSMYCTRL, for which the amyloid nucleation score was 3.33 ± 0.14.
The substance LCGLSTLLFFKMDV yielded an amyloid nucleation score of 0.716 ± 0.6.
The substance FSVDMHRWLMTWRHQRDRRV showed an amyloid nucleation score of 2.75 ± 0.18.
Under LSYVDWKCAVFDICW stands 3.53 ± 0.043; under AFNERAYYVGGLTADME, 0.753 ± 0.43.
For the substance DRYNHKSSMIREVRLLIASY, the amyloid nucleation score was -0.123 ± 0.76.
For the substance ALLDHFPDEGHFKATFISSI, the amyloid nucleation score was 0.85 ± 0.58.
On to DRAVLRGVVSDNSV, for which the amyloid nucleation score amounted to 0.439 ± 0.74.
As for RSRARSWFLDKDMLLSKDRA, the amyloid nucleation score result is “inactive”.
In turn, LTTKKLRSWV came in with an amyloid nucleation score of -0.895 ± 1.1.
On to VFLGVSGETVNSTGYFTGMN, for which the amyloid nucleation score was -2.13 ± 1.1.
In turn, SFGWAYSVICLFIALTRTFL yielded an amyloid nucleation score of -0.123 ± 0.26.
For AFDTTPKC, the amyloid nucleation score came out at 0.275 ± 0.32.
VTNHV showed an amyloid nucleation score of 0.895 ± 0.33.
The result for VRMSQKDGKTPFQMFGHLEM reads 0.039 ± 0.21; that for GLGAKYWIYVVGFHCVHN, 0.289 ± 0.39.
YSTEPSRHGIWNG yielded an amyloid nucleation score of -0.735 ± 0.56.
Under MSMFVGTYNSFFRQSLFSAF stands -1.7 ± 0.78; under PSLVRRNTSLCL, 0.325 ± 0.41; under FTVLCYSSDIMEDFRFTHHN, 4.12 ± 0.047.
Turning to VRSKVFALVGAFSMIKFRGC, the amyloid nucleation score result is “inactive”.
Turning to KIRFIPTPKYHEIYMNAAIG, the amyloid nucleation score was -1.7 ± 0.75.
Take YSSMGDNSRVRSFFVAVAGG: the amyloid nucleation score result is “inactive”.
Consider GGGSG, for which the amyloid nucleation score came to 0.123 ± 1.
Turning to WRCSSISCDCDARLGRMRVS, the amyloid nucleation score was 0.697 ± 0.42.
Under GDGRVYMVIGSGRGRV stands 0.506 ± 0.41; under KMEMRGCRMVTNMYC, -0.06 ± 0.33; under LLACLKGTSGAGRIYAYLMT, -0.096 ± 0.3.
NTLSPFQIEFGGWLMGVLFK: the amyloid nucleation score was 0.611 ± 0.81.
The result for FRSNSDLISFERASFR reads -1.62 ± 0.55.
FLRVRP: the amyloid nucleation score is -0.719 ± 0.29.
For LVRSVFIRYCISIPCRTRVL, the amyloid nucleation score was 0.034 ± 1.1.
The result for GLIGCAMSVVPHEELCVRTC reads 1.07 ± 0.29; that for SISIPCRYYKGLRSTSLYSR, -0.264 ± 0.26; that for MTFDNDVCVSI, “inactive”.
The result for DDVKDNVYGSVEALKPRSG reads 0.467 ± 0.17.
Under NLKKAQFRGMYVAYP stands 1.55 ± 0.47.
With SEMDPPYPEISHYRYQRNHW, the amyloid nucleation score stood at 0.11 ± 0.54.
Consider NVFLLSVREMSSFLRTTTLG, for which the amyloid nucleation score was 1.24 ± 0.17.
Substance RALCTKVRTLLCFYLGVLWS returned an amyloid nucleation score of 0.903 ± 0.74.
In turn, GESTWATVLACPSERRSCSR had an amyloid nucleation score of 0.559 ± 0.33.
Substance YYLVV displayed an amyloid nucleation score of -0.614 ± 0.56.
The result for AFRSSSPSRVHELRQMKELV reads 1.14 ± 0.3; that for KYSVMLALLEPIRWTWLIQF, 0.323 ± 0.62.
Under RFTLIFCGSRESNGG stands 6.43 ± 0.065; under LKWDFRIYTTSWAAKKQGME, 0.095 ± 0.37.
Take MDFVNTIATCNKKREVRFVI: the amyloid nucleation score was -1.1 ± 0.36.
The substance GCIGGHRFYSPRSNSVFEVG returned an amyloid nucleation score of 3.44 ± 0.081.
Consider HIRGVIVGRAPDRCI, for which the amyloid nucleation score entry is “inactive”.
The substance CLCCKLVYASNIEIGDYMGF returned an amyloid nucleation score of 6.216 ± 0.034.
For IVKYTGSKIYKFWYDLAGPL, the amyloid nucleation score was -1.06 ± 1.1.
Under MTMMVGRIISTNRVYS stands 1.29 ± 0.53; under MCTELYEDGNKPTTRSDRSA, 3.21 ± 0.1; under GGREARMGRKKGERVYRVRF, 0.657 ± 0.56.
Turning to FFVMGRSGYSLVALKREKSI, the amyloid nucleation score result is “inactive”.
The substance MEFDVLSIFQRGSRAGAK gave an amyloid nucleation score of -1.3 ± 0.54.
Turning to LASAFG, the amyloid nucleation score is -0.792 ± 0.79.
Take HKIPLFYCSYTELGSSVERR: the amyloid nucleation score was 1.38 ± 0.15.
In turn, GFKYVRSRNSGALYKYSS came in with an amyloid nucleation score of -0.962 ± 0.54.
LTVLCPANLSYRIVYVLLYK yielded an amyloid nucleation score of -0.865 ± 0.41.
Under SSFCKPLKVRWLGVIVQLSV stands -0.872 ± 0.45.
Substance YPNRFINTCFVRCNISLNNY yielded an amyloid nucleation score of 8.485 ± 0.061.
The result for LLMFRVRVDELWHGAARHMG reads 1.64 ± 0.38.
Under FAVTGFTWYMKIRCASIPLV stands 1.65 ± 0.21.
For ALMTVASRKTLIPVGAKQMN, the amyloid nucleation score entry was “inactive”.
Substance QGLCRV showed an amyloid nucleation score of 4 ± 0.069.
NMEQFTRSIKSIGKRFTVTV returned an amyloid nucleation score of -0.471 ± 0.76.
For the substance LWSGFLSFVSNVPTFLYLS, the amyloid nucleation score is -2.01 ± 0.41.
The substance KPGMRNNYFLAFGFYCTCTR came in with an amyloid nucleation score of 1.59 ± 0.21.
Under HSYLKLVGLCKNSKRFNHNF stands “inactive”; under FRYIFRHKHGWTFLHKMVRK, -1.07 ± 1.1; under IPFIRMFVSFNNLQSISIPD, 5.534 ± 0.033.
The result for HAMLRTDILICCITH reads 9.805 ± 0.065; that for AISHQPLWLLCHVVHLFRNS, 0.279 ± 0.32.
On to LRHCVYVYSATSRWIC, for which the amyloid nucleation score came out at 0.674 ± 0.43.
LFEAWSIYIYFASLKGTAGG yielded an amyloid nucleation score of -1.26 ± 1.1.
The substance KRFAIPEHTLTTYRQLA had an amyloid nucleation score of 0.082 ± 0.42.
The substance NYVCWISGTTGLVM registered an amyloid nucleation score of -0.319 ± 0.76.
As to FCRLLPSLCTTNLK, the amyloid nucleation score was -0.663 ± 0.76.
As to VLVNKGLTMHFACSYV, the amyloid nucleation score was 0.547 ± 0.81.
Regarding THIAVIGISGTDEENLKLGR, the amyloid nucleation score is 6.439 ± 0.026.
For IGTADDKVSNRQGEPTEMA, the amyloid nucleation score is 0.681 ± 0.55.
In turn, VADMVVRT returned an amyloid nucleation score of 0.806 ± 0.32.
Under RRGGDKVIISEHV stands -0.757 ± 0.45; under SEWEYPNINE, “inactive”; under DGKVSC, “inactive”.
GAGLMALNLTHFVGGGLSTN came in with an amyloid nucleation score of -0.179 ± 0.76.
Regarding CTIVYF, the amyloid nucleation score came out at 1.13 ± 0.27.
Substance NWSNLEWWL showed an amyloid nucleation score of 0.054 ± 0.77.
The result for LVESVTEEQE reads 0.837 ± 0.47; that for NCFVLVRALTYCLGNSR, 5.18 ± 0.1.
The result for SLAIAVNAMIHNIPADIWMH reads 6.27 ± 0.083; that for ENGRYHFFKAEHWFCRLMMM, “inactive”; that for IYYRVWMSFSFRG, -0.717 ± 0.37.
Under WCGFHGKATNHFMWIV stands 1.45 ± 0.27.
The substance ILWGERRIDSRSWKIVARYF came in with an amyloid nucleation score of -0.664 ± 1.1.
In turn, ELLEGYSLKEMYAFPVKWAV had an amyloid nucleation score of 0.741 ± 0.6.
Take FHIFQFVSLGFWSSEG: the amyloid nucleation score result is “inactive”.
Take VHYVFSCCNKLPSANSRWGL: the amyloid nucleation score was 6.718 ± 0.066.
RILVTGI had an amyloid nucleation score of -0.653 ± 0.79.
Under WSCCKFLDCHITVCDFLVWA stands 7.587 ± 0.047.

Values taken from the supplement of paper PMC12042874.
